We go through seven molecules from patent publication US20240174992A1, “SPLIT MODIFIED DEHALOGENASE VARIANTS” (Promega Corporation, priority 2022, published 2024).

What all share (assay): cell-based or functional assay
The target of experiment [1] is spHT 145 C-terminal fragment [146-297] fused to FRB or FKBP.
The target of experiment [2] is spHT 80 C-terminal fragment [81-297] fused to FRB or FKBP.
The target in experiment [3] is spHT 180 C-terminal fragment [181-297] fused to FRB or FKBP.
Experiment [4] has as its target spHT 19 C-terminal fragment [20-297] fused to FRB or FKBP.
Experiment [5] concerns the target spHT 157 C-terminal fragment [158-297] fused to FRB or FKBP.
The target in experiment [6] is spHT 195 C-terminal fragment [196-297] fused to FRB or FKBP.
Experiment [7] deals with spHT 133 C-terminal fragment [134-297] fused to FRB or FKBP.

B1: spHT 145 N-terminal fragment [1-145] fused to FRB or FKBP (protein, part only; not given: FRB or FKBP partner, orientation, part only)
chain, part: MAEIGTGFPFDPHYVEVLGERMHYVDVGPRDGTPVLFLHGNPTSSYVWRNIIPHVAPTHRCIAPDLIGMGKSDKPDLGYFFDDHVRFMDAFIEALGLEEVVLVIHDWGSALGFHWAKRNPERVKGIAFMEFIRPIPTWDEWPEFA
For the molecule B1, in experiment [1], the fold increase in JF646 fluorescence with 50 nM rapamycin (E. coli lysates) is above 2 fold.

B2: spHT 80 N-terminal fragment [1-80] fused to FRB or FKBP (protein, part only; not given: FRB or FKBP partner, orientation, part only)
chain, part: MAEIGTGFPFDPHYVEVLGERMHYVDVGPRDGTPVLFLHGNPTSSYVWRNIIPHVAPTHRCIAPDLIGMGKSDKPDLGYF
B2 showed a fold increase in JF646 fluorescence with 50 nM rapamycin (E. coli lysates) in experiment [2] above 2 fold.

B3: spHT 180 N-terminal fragment [1-180] fused to FRB or FKBP (protein, part only; not given: FRB or FKBP partner, orientation, part only)
chain, part: MAEIGTGFPFDPHYVEVLGERMHYVDVGPRDGTPVLFLHGNPTSSYVWRNIIPHVAPTHRCIAPDLIGMGKSDKPDLGYFFDDHVRFMDAFIEALGLEEVVLVIHDWGSALGFHWAKRNPERVKGIAFMEFIRPIPTWDEWPEFARETFQAFRTTDVGRKLIIDQNVFIEGTLPMGVVRP
For B3, the fold increase in JF646 fluorescence with 50 nM rapamycin (E. coli lysates) in experiment [3] was above 2 fold.

In the case of MAEIGTGFPFDPHYVEVLG (peptide, part only; not given: FRB or FKBP partner, orientation, part only) [spHT 19 N-terminal fragment [1-19] fused to FRB or FKBP], in experiment [4], the increase in JF646 fluorogenic signal at a N:C fragment ratio of 10 was determined as 25% and the increase in TMR labeling efficiency on raising the N:C fragment ratio from 1.25 to 10 was above 100%.

B4: spHT 157 N-terminal fragment [1-157] fused to FRB or FKBP (protein, part only; not given: FRB or FKBP partner, orientation, part only)
chain, part: MAEIGTGFPFDPHYVEVLGERMHYVDVGPRDGTPVLFLHGNPTSSYVWRNIIPHVAPTHRCIAPDLIGMGKSDKPDLGYFFDDHVRFMDAFIEALGLEEVVLVIHDWGSALGFHWAKRNPERVKGIAFMEFIRPIPTWDEWPEFARETFQAFRTTDV
In turn, B4 had a fold increase in JF646 fluorescence with 50 nM rapamycin (E. coli lysates) in experiment [5] above 2 fold.

B5: spHT 195 N-terminal fragment [1-195] fused to FRB or FKBP (protein, part only; not given: FRB or FKBP partner, orientation, part only)
chain, part: MAEIGTGFPFDPHYVEVLGERMHYVDVGPRDGTPVLFLHGNPTSSYVWRNIIPHVAPTHRCIAPDLIGMGKSDKPDLGYFFDDHVRFMDAFIEALGLEEVVLVIHDWGSALGFHWAKRNPERVKGIAFMEFIRPIPTWDEWPEFARETFQAFRTTDVGRKLIIDQNVFIEGTLPMGVVRPLTEVEMDHYREPFLN
As to B5, the fold increase in JF646 fluorescence with 50 nM rapamycin (E. coli lysates) in experiment [6] is above 2 fold.

B6: spHT 133 N-terminal fragment [1-133] fused to FRB or FKBP (protein, part only; not given: FRB or FKBP partner, orientation, part only)
chain, part: MAEIGTGFPFDPHYVEVLGERMHYVDVGPRDGTPVLFLHGNPTSSYVWRNIIPHVAPTHRCIAPDLIGMGKSDKPDLGYFFDDHVRFMDAFIEALGLEEVVLVIHDWGSALGFHWAKRNPERVKGIAFMEFIR
In turn, B6 showed a fold increase in JF646 fluorescence with 50 nM rapamycin (E. coli lysates) in experiment [7] above 2 fold.
